Source: article PMC3063768

Key:
[1] = target: HIV-1 CA A14C/E45C, tubular assemblies (HIV-1); assay: cross-linking; preassembled double-cysteine mutant CA tubes oxidized with CuSO4/1,10-phenanthroline for 5 seconds, quenched with iodoacetamide and neocuproine; non-reducing SDS-PAGE, Coomassie Blue; with or without prior TRIM5α CC-SPRY (18 µM)
[2] = target: HIV-1 capsid-nucleocapsid (CA-NC), preassembled tubular assemblies (HIV-1); assay: co-sedimentation; preassembled CA-NC tubes (2 mg/ml or 10 µM, with TG50 oligonucleotide) incubated with TRIM5α CC-SPRY (0-20 µM) 1 hr at room temperature; pelleted at 20,000 g 15 min; SDS-PAGE, Coomassie Blue, gel densitometry of pellet
[3] = target: HIV-1 capsid protein (CA), wild type, preassembled tubular assemblies (HIV-1); assay: co-sedimentation; preassembled wild-type CA tubes (64 µM) incubated with TRIM5α CC-SPRY (0-20 µM) 1 hr at room temperature in 10 mM Tris pH 7.5, 330 mM NaCl, 1 mM TCEP, 5% glycerol; pelleted at 20,000 g 15 min; SDS-PAGE, Coomassie Blue, gel densitometry of pellet
[4] = target: HIV-1 CA P207C/T216C, tubular assemblies, non-oxidized (HIV-1); assay: cross-linking; preassembled double-cysteine mutant CA tubes oxidized with CuSO4/1,10-phenanthroline for 5 seconds, quenched with iodoacetamide and neocuproine; non-reducing SDS-PAGE, Coomassie Blue; with or without prior TRIM5α CC-SPRY (18 µM)
[5] = target: CA of isolated HIV-1 A14C/E45C cores (HIV-1); assay: cross-linking; isolated HIV-1 cores with double-cysteine mutant CA, with or without oxidizer; non-reducing SDS-PAGE, immunoblotting with rabbit anti-CA serum
[6] = target: CA of isolated HIV-1 P207C/T216C cores, without oxidizer (HIV-1); assay: as above

Question: Which stoichiometry N [1] does the source give for “HIV-1 CA A14C/E45C, tubular assemblies (natural protein)” here?
Answer: 6

Question: Which binding ratio (molar ratio of bound TRIM5αrh CC-SPRY to CA-NC in the pellet) at 1 µM TRIM5αrh CC-SPRY and 10 µM CA-NC [2] does the source give for “Rhesus macaque TRIM5α coiled-coil and SPRY domains (TRIM5αrh CC-SPRY, residues 134–497) (from UniProt Q0PF16 134-497) (domain or fragment)” here?
Answer: 0.034 molar ratio

Question: And the binding ratio (molar ratio of bound TRIM5αrh CC-SPRY to CA-NC in the pellet) at 18 µM TRIM5αrh CC-SPRY [2]?
Answer: 0.21 molar ratio

Question: What about the binding ratio (molar ratio of bound TRIM5αrh CC-SPRY to CA in the pellet) at 18 µM TRIM5αrh CC-SPRY [3] of the same substance?
Answer: 0.41 molar ratio

Question: How did the stoichiometry N [4] turn out when “HIV-1 CA P207C/T216C, tubular assemblies, non-oxidized (natural protein)” was run?
Answer: 3

Question: How did the stoichiometry N [5] turn out when “CA of isolated HIV-1 A14C/E45C cores (natural protein)” was run?
Answer: 6

Question: For “CA of isolated HIV-1 P207C/T216C cores, without oxidizer (natural protein)”, which stoichiometry N [6] is on record?
Answer: 3
